The values below come from the Immune Epitope Database (IEDB).

Assay [1] addresses HLA-B*18:01. The assay can be described thus: IEDB peptide-MHC binding, purified MHC/competitive/radioactivity; filed as Kd, often an IC50 or EC50 that approximates it; ≥ and ≤ were set here for values at or beyond the usual limits of such assays.
For another assay, the target named is HLA-B*44:03. Described as above.
For the next assay, the target named is HLA-B*40:02. The description is as above.
The next assay has as its target HLA-B*40:01. The assay is described as above.
In the next assay the target is HLA-B*44:02. The assay is described as above.
The target in another assay is HLA-B*45:01. Described as above.
The target in the next assay is HLA-A*68:01. The description is as above.
Another assay deals with HLA-B*35:01. The assay is described as above.
The target of another assay is HLA-A*33:01. The description is as above. The conditions noted are these: source organism: Dengue virus 2 Jamaica/1409/1983.
Another assay addresses HLA-A*02:06. The description is as above. The conditions noted are these: source organism: Dengue virus 1 Brazil/97-11/1997.
Another assay has as its target HLA-A*02:17. The assay is described as above.
Another assay has as its target HLA-A*24:03. As to the kind of experiment: IEDB peptide-MHC binding, purified MHC/direct/fluorescence; filed as Kd, often an IC50 or EC50 that approximates it; ≥ and ≤ were set here for values at or beyond the usual limits of such assays. The conditions noted are these: source organism: Zaire ebolavirus.
The next assay has as its target HLA-A*02:01. The assay is described as above. The settings on record: source organism: Sudan ebolavirus - Maleo (1979).
The target in another assay is HLA-A*03:01. The description is as above. The settings on record: source organism: Zaire ebolavirus.
In assay [2] the target is HLA-B*18:01. As to the kind of experiment: IEDB peptide-MHC binding, purified MHC/competitive/fluorescence; filed as Kd, often an IC50 or EC50 that approximates it; ≥ and ≤ were set here for values at or beyond the usual limits of such assays. The conditions noted are these: source organism: Zaire ebolavirus.
Another assay has as its target HLA-A*69:01. Described as above. The settings on record: source organism: Zaire ebolavirus.
The target of a further assay is HLA-B*57:01. The assay is described as above. The settings on record: source organism: Zaire ebolavirus.
A further assay deals with HLA-B*15:01. Described as above. The settings on record: source organism: Zaire ebolavirus.
In a further assay the target is HLA-B*27:03. The assay is described as above. The conditions noted are these: source organism: Zaire ebolavirus.
Assay [3] concerns the target HLA-B*51:01. Described as above. The conditions noted are these: source organism: Zaire ebolavirus.
The target of a further assay is HLA-B*39:01. The description is as above. The settings on record: source organism: Zaire ebolavirus.
A further assay concerns the target HLA-B*46:01. The assay is described as above. The settings on record: source organism: Zaire ebolavirus.
In another assay the target is HLA-B*15:17. The assay is described as above. The settings on record: source organism: Zaire ebolavirus.
A further assay has as its target HLA-B*53:01. As to the kind of experiment: IEDB peptide-MHC binding, purified MHC/competitive/radioactivity; filed as Kd, often an IC50 or EC50 that approximates it; ≥ and ≤ were set here for values at or beyond the usual limits of such assays.
Another assay deals with HLA-A*30:02. The description is as above. The conditions noted are these: source organism: Dengue virus 4 Philippines/H241/1956.
For assay [4], the target named is HLA-B*51:01. Described as above. The conditions noted are these: source organism: Dengue virus 1 Brazil/97-11/1997.
[5] abbreviates: source organism: Mammarenavirus guanaritoense.
Where [6] appears, read: source organism: Mammarenavirus machupoense.
Where [7] appears, read: source organism: SARS coronavirus Tor2.
Setting [8] is: source organism: Mammarenavirus choriomeningitidis.
Setting [9] is: source organism: Dengue virus 2 Jamaica/1409/1983.
Setting [10] is: source organism: Dengue virus 3 Sri Lanka/1266/2000.
[11] abbreviates: source organism: Dengue virus 4 Philippines/H241/1956.
Setting [12] is: source organism: Dengue virus 1 Brazil/97-11/1997.
Setting [13] is: source organism: Mammarenavirus juninense.
Setting [14] is: source organism: Mammarenavirus lassaense.

Turning to ADSEITETY, the Kd was 1.39 µM with HLA-B*18:01 [1] (setting [5]); 2.77 µM with HLA-B*44:03 (setting [5]); at least 77.2 µM with HLA-B*40:02 (setting [5]); at least 37.6 µM with HLA-B*40:01 (setting [5]); 6.54 µM in the assay with HLA-B*44:02 (setting [5]); 17 µM with HLA-B*45:01 (setting [5]).

As for AEWLEMICF, the Kd in the assay with HLA-B*18:01 [1] (setting [6]) is 0.164 µM; with HLA-B*44:03 (setting [6]), 0.0681 µM; with HLA-B*40:02 (setting [6]), 0.0194 µM; with HLA-B*40:01 (setting [6]), 2.01 µM; with HLA-B*44:02 (setting [6]), 0.0446 µM; with HLA-B*45:01 (setting [6]) it was 0.0825 µM.

With EEVVENPTI, the Kd with HLA-B*18:01 [1] (setting [7]) was at least 45.6 µM; in the assay with HLA-B*44:03 (setting [7]) it was 0.778 µM; with HLA-B*40:02 (setting [7]), 4.88 µM; with HLA-B*40:01 (setting [7]), 2.73 µM; with HLA-B*44:02 (setting [7]), 4.54 µM; in the assay with HLA-B*45:01 (setting [7]), 1.22 µM.

With FEDQFLPFMS, the Kd with HLA-B*18:01 [1] (setting [8]) was 2.39 µM; in the assay with HLA-B*44:03 (setting [8]), at least 27.2 µM; with HLA-B*40:02 (setting [8]), 0.312 µM; in the assay with HLA-B*40:01 (setting [8]), 3.89 µM; in the assay with HLA-B*44:02 (setting [8]), 14.6 µM; with HLA-B*45:01 (setting [8]) it was 3.5 µM.

On to FENKTTLPV, for which the Kd in the assay with HLA-B*18:01 [1] (setting [7]) was 0.666 µM; with HLA-B*44:03 (setting [7]), 1.87 µM; with HLA-B*40:02 (setting [7]), 0.0253 µM; with HLA-B*40:01 (setting [7]), 0.115 µM; in the assay with HLA-B*44:02 (setting [7]), 17.1 µM; with HLA-B*45:01 (setting [7]), 0.851 µM.

Take FTNMEAQLIR: the Kd with HLA-A*68:01 (setting [9]) is 0.0193 µM; with HLA-B*35:01 (setting [9]), 9.88 µM; with HLA-A*33:01, 0.108 µM.

In the case of FTNMEAQLVR, the Kd came to 0.0792 µM in the assay with HLA-A*68:01 (setting [10]) and 11.8 µM in the assay with HLA-B*35:01 (setting [10]).

For the sequence GEDTVWEVQG, the Kd was at least 70.5 µM with HLA-B*18:01 [1] (setting [7]); 16.3 µM with HLA-B*44:03 (setting [7]); 18.4 µM in the assay with HLA-B*40:02 (setting [7]); at least 29.3 µM with HLA-B*40:01 (setting [7]); at least 45 µM in the assay with HLA-B*44:02 (setting [7]); 4.03 µM with HLA-B*45:01 (setting [7]).

For IDFLIMRNL, the Kd with HLA-B*18:01 [1] (setting [5]) was 15.2 µM; with HLA-B*44:03 (setting [5]), 16.1 µM; with HLA-B*40:02 (setting [5]), 0.224 µM; with HLA-B*40:01 (setting [5]), 15.5 µM; with HLA-B*44:02 (setting [5]) it was 14.5 µM; with HLA-B*45:01 (setting [5]) it was 18 µM.

With IILEFFLMV, the Kd is 0.00178 µM with HLA-A*02:06 and 0.182 µM in the assay with HLA-A*02:17 (setting [11]).

As to KEINLLSQT, the Kd in the assay with HLA-B*18:01 [1] (setting [6]) was at least 77.5 µM; with HLA-B*44:03 (setting [6]) it was 14.3 µM; with HLA-B*40:02 (setting [6]), 0.0311 µM; with HLA-B*40:01 (setting [6]), at least 34.1 µM; in the assay with HLA-B*44:02 (setting [6]), 17 µM; in the assay with HLA-B*45:01 (setting [6]) it was 6.69 µM.

For KLEKASLIEV, the Kd with HLA-A*02:17 (source organism: Dengue virus 3 China/80-2/1980) is 1.14 µM.

For the sequence KLINTLFHA, the Kd with HLA-A*24:03 is at least 20 µM; in the assay with HLA-A*02:01, 0.0047 µM; with HLA-A*03:01, at least 20 µM; with HLA-B*18:01 [2] it was at least 20 µM; in the assay with HLA-A*69:01, at least 20 µM; with HLA-B*57:01 it was at least 20 µM. Further, the Kd with HLA-B*15:01, with HLA-B*27:03, with HLA-B*51:01 [3], in the assay with HLA-B*39:01, with HLA-B*46:01 and in the assay with HLA-B*15:17 was at least 20 µM each time.

With LALMATFKM, the Kd with HLA-B*35:01 (setting [12]) was determined as 0.11 µM.

As to NDNFLMRNV, the Kd was at least 76.7 µM in the assay with HLA-B*18:01 [1] (setting [6]); at least 42.5 µM with HLA-B*44:03 (setting [6]); 2.12 µM in the assay with HLA-B*40:02 (setting [6]); at least 76.1 µM in the assay with HLA-B*40:01 (setting [6]); 9.96 µM with HLA-B*44:02 (setting [6]); at least 77.5 µM with HLA-B*45:01 (setting [6]).

With PDFNSLISI, the Kd was at least 77.5 µM with HLA-B*18:01 [1] (setting [6]); at least 78.1 µM with HLA-B*44:03 (setting [6]); 0.813 µM in the assay with HLA-B*40:02 (setting [6]); 15.8 µM with HLA-B*40:01 (setting [6]); at least 26.6 µM in the assay with HLA-B*44:02 (setting [6]); at least 77.7 µM with HLA-B*45:01 (setting [6]).

Take PDVLRSDVY: the Kd with HLA-B*18:01 [1] (setting [13]) was 2.25 µM; in the assay with HLA-B*44:03 (setting [13]), at least 78.1 µM; with HLA-B*40:02 (setting [13]) it was at least 77.2 µM; with HLA-B*40:01 (setting [13]), at least 76.1 µM; in the assay with HLA-B*44:02 (setting [13]) it was at least 48.5 µM; in the assay with HLA-B*45:01 (setting [13]), at least 77.7 µM.

As to QEIQLLAAV, the Kd with HLA-B*18:01 [1] (setting [7]) stood at 0.143 µM; in the assay with HLA-B*44:03 (setting [7]), 0.0485 µM; with HLA-B*40:02 (setting [7]), 19.3 µM; with HLA-B*40:01 (setting [7]) it was 0.0265 µM; in the assay with HLA-B*44:02 (setting [7]), 0.0933 µM; in the assay with HLA-B*45:01 (setting [7]), 0.00872 µM.

Consider REAYCQEFSL, for which the equilibrium dissociation constant (Kd) in the assay with HLA-B*18:01 [1] (setting [14]) worked out at 11.3 µM; with HLA-B*44:03 (setting [14]) it was 2.79 µM; in the assay with HLA-B*40:02 (setting [14]) it was 0.00134 µM; in the assay with HLA-B*40:01 (setting [14]), 9.78 µM; with HLA-B*44:02 (setting [14]), 1.06 µM; with HLA-B*45:01 (setting [14]), 1.54 µM.

REPAGLGSM: the Kd was 8.15 µM with HLA-B*18:01 [1] (setting [14]); at least 78.1 µM with HLA-B*44:03 (setting [14]); 0.0859 µM with HLA-B*40:02 (setting [14]); 7.91 µM with HLA-B*40:01 (setting [14]); at least 33.5 µM with HLA-B*44:02 (setting [14]); at least 77.7 µM in the assay with HLA-B*45:01 (setting [14]).

Turning to RPASAWTLY, the Kd with HLA-B*53:01 (setting [9]) stood at 0.0875 µM; in the assay with HLA-B*35:01 (setting [9]), 0.0836 µM.

SDHLISEML: the Kd is at least 77.5 µM in the assay with HLA-B*18:01 [1] (setting [6]); at least 31.7 µM in the assay with HLA-B*44:03 (setting [6]); 0.217 µM with HLA-B*40:02 (setting [6]); at least 22.4 µM with HLA-B*40:01 (setting [6]); 12.2 µM in the assay with HLA-B*44:02 (setting [6]); 17.2 µM with HLA-B*45:01 (setting [6]).

Turning to TELEPPCRF, the Kd with HLA-B*18:01 [1] (setting [7]) was 0.892 µM; with HLA-B*44:03 (setting [7]) it was 0.0629 µM; with HLA-B*40:02 (setting [7]), 14 µM; with HLA-B*40:01 (setting [7]) it was at least 28.5 µM; in the assay with HLA-B*44:02 (setting [7]), 0.099 µM; in the assay with HLA-B*45:01 (setting [7]), 12.1 µM.

As for WHYDDENPY, the Kd with HLA-B*35:01 (source organism: Dengue virus 3 Martinique/1243/1999) was 2.62 µM.

In the case of YAGPFSQHNY, the Kd worked out at 0.0149 µM in the assay with HLA-A*30:02 and 0.113 µM in the assay with HLA-B*35:01 (setting [11]).

On to YAQMWQLMYF, for which the values for the Kd with HLA-B*53:01 (setting [12]), with HLA-B*51:01 [4] and in the assay with HLA-B*35:01 (setting [12]) were 0.081 µM, 19.4 µM and 0.964 µM, respectively.

Consider YDQMKCKSL, for which the Kd is at least 77.5 µM with HLA-B*18:01 [1] (setting [14]); at least 78.1 µM with HLA-B*44:03 (setting [14]); 3.2 µM with HLA-B*40:02 (setting [14]); at least 76.1 µM with HLA-B*40:01 (setting [14]); at least 76.2 µM with HLA-B*44:02 (setting [14]); at least 59.4 µM with HLA-B*45:01 (setting [14]).
